The values below come from patent US20110064733A1 (published 2011).

Assay [1] deals with T1, Muc1 mucin bearing the CA6 sialoglycotope (DS6 antigen), as expressed by CA6-positive human tumour cell lines (human, UniProt P15941 24-1255, sialylated O-linked carbohydrate carrying the CA6 glycotope; sites not stated). In words: cell-based or functional assay.
Assay [2] deals with T1, Muc1 mucin bearing the CA6 …. In words: flow cytometry on HeLa cells (FIG. 28), apparent Kd, probably pM. Background: A flow cytometer gives signals particle by particle.
The target is the same in assay [3]. In words: flow cytometry competition; competitor 2 nM biotin-muDS6, streptavidin-DTAF; called IC50 in the legend of FIG. 19. The method, then:
In the first set of experiments direct binding to a CA6-expressing cell line, KB, was measured.

B1: murine anti-CA6 monoclonal antibody DS6 (antibody, mouse IgG1, V domains shown)
VH: QAYLQQSGAELVRSGASVKMSCKASGYTFTSYNMHWVKQTPGQGLEWIGYIYPGNGATNYNQKFKGKATLTADPSSSTAYMQISSLTSEDSAVYFCARGDSVPFAYWGQGTLVTVSA
VL: QIVLTQSPAIMSASPGEKVTITCSAHSSVSFMHWFQQKPGTSPKLWIYSTSSLASGVPARFGGSGSGTSYSLTISRMEAEDAATYYCQQRSSFPLTFGAGTKLELKR
notes: Whole murine monoclonal antibody from the hybridoma (ATCC PTA-4449); They were cloned with murine IgG1 and kappa primers; also called muDS6; the DS6 antibody
A word on the EC50: it is the concentration at which the effect is half-maximal. Read a low EC50 as an effect from little substance. As for B1, in assay [1], the “indirect cell viability assay on Caov-3 cells with anti-mouse IgG (H+L) DM1 conjugate, IC50” value is 425000 nM. Also, the Kd in assay [2] was determined as 620000 nM. The molecule further registered an EC50 in assay [3] of 1.9 nM.

B2: chimeric DS6 antibody (antibody, V domains shown)
VH: QAYLQQSGAELVRSGASVKMSCKASGYTFTSYNMHWVKQTPGQGLEWIGYIYPGNGATNYNQKFKGKATLTADPSSSTAYMQISSLTSEDSAVYFCARGDSVPFAYWGQGTLVTVSA
VL: QIVLTQSPAIMSASPGEKVTITCSAHSSVSFMHWFQQKPGTSPKLWIYSTSSLASGVPARFGGSGSGTSYSLTISRMEAEDAATYYCQQRSSFPLTFGAGTKLELKR
notes: Expressed in CHO cells; also called chDS6
B2: it took 1.7 nM to reach a half-maximal effect in assay [3] (EC50).

B3: humanized DS6 antibody version 1.01 (antibody, V domains shown)
VH: QAQLVQSGAEVVKPGASVKMSCKASGYTFTSYNMHWVKQTPGQGLEWIGYIYPGNGATNYNQKFQGKATLTADTSSSTAYMQISSLTSEDSAVYFCARGDSVPFAYWGQGTLVTVSA
VL: EIVLTQSPATMSASPGERVTITCSAHSSVSFMHWFQQKPGTSPKLWIYSTSSLASGVPARFGGSGSGTSYSLTISSMEAEDAATYYCQQRSSFPLTFGAGTKLELKR
notes: also called huDS6v1.01; huDS6 v1.01
Turning to B3, the response in assay [3] was half-maximal at 3 nM (EC50).

B4: humanized DS6 antibody version 1.21 (antibody, V domains shown)
VH: QAQLVQSGAEVVKPGASVKMSCKASGYTFTSYNMHWVKQTPGQGLEWIGYIYPGNGATNYNQKFQGKATLTADPSSSTAYMQISSLTSEDSAVYFCARGDSVPFAYWGQGTLVTVSA
VL: EIVLTQSPATMSASPGERVTITCSAHSSVSFMHWFQQKPGTSPKLWIYSTSSLASGVPARFGGSGSGTSYSLTISSMEAEDAATYYCQQRSSFPLTFGAGTKLELKR
notes: also called huDS6v1.21; huDS6 v1.21
For B4, the midpoint of the response in assay [3], the EC50, lay at 1.9 nM.
